B1: Ab (52-3) (antibody, V domains shown)
VH: QVQLQQPGAELVKPGASVKLSCKASGYTFTSYWMHWVKQRPGQGLEWIGEINPSNGRTNYNEKFKSKATLTVDKSSSTAYMQLSSLTSEDSAVYYCARSRYYGSCYFDYWGQGTTLTVSS
VL: KIVMTQAAFSNPVTLGTSASISCRSSKSLLYSNGITYLYWYLQKPGQSPQLLIYQMSNLASGVPDRFSSSGSGTDFTLRISRVEAEDVGVYYCAQNLELPWTFGGGTKLEIK
B2: anti-mortalin monoclonal antibody 52-3 (antibody, V domains shown)
VH: B1 VH
VL: B1 VL

Experiments:
Δmot #4 403-679 = test: BIACORE
[1] = target: full-length mortalin with an His tag (recombinant, expressed in Escherichia coli); test: BIACORE

Row | Binder | Kd (Δmot #4 403-679) [nM] | Kd [1] [nM]
1 | B1 | 4.61 | 
2 | B2 |  | 8.17
